Results as given in patent US20260242419A1, “A CYCLIC PEPTIDE FOR TRAPPING INTERLEUKIN-1 BETA” (Merck Sharp & Dohme LLC, priority 2023, published 2026).
Starred links: 1 amine or outer side, 2 acyl side, 3 side chain; linkers in the order of their positions; H or OH if unused. Non-standard residues stand in square brackets, D forms with d. PyrimAla4Ph4CO2H = 4-[5-[(2S)-2-amino-2-carboxy-ethyl]pyrimidin-2-yl]benzoic acid, O=C([C@H](Cc1cnc(-c2ccc(C(=O)[*:3])cc2)nc1)N[*:1])[*:2]; TyrEtNAc = (2S)-3-[4-(2-acetamidoethoxy)phenyl]-2-amino-propanoic acid, CC(=O)NCCOc1ccc(C[C@H](N[*:1])C(=O)[*:2])cc1; Phe(4-(5-CO2H-2-pyrimidyl)) = N[C@@H](Cc1ccc(-c2ncc(C(=O)O)cn2)cc1)C(=O)O; Phe(4-(4-Ac-piperazinyl)) = CC(=O)N1CCN(c2ccc(C[C@H](N)C(=O)O)cc2)CC1; dPro(4R-(4-pyridylmethyl)) = O=C(O)[C@H]1C[C@@H](Cc2ccncc2)CN1; Trp(βS-Me,4-F) = C[C@@H](c1c[nH]c2cccc(F)c12)[C@H](N)C(=O)O; Bip(4'-COOH) = N[C@@H](Cc1ccc(-c2ccc(C(=O)O)cc2)cc1)C(=O)O; Ala(1-bicyclo(1.1.1)pentyl) = N[C@@H](CC12CC(C1)C2)C(=O)O; dPro(4R-Bzl(4-F)) = O=C(O)[C@H]1C[C@@H](Cc2ccc(F)cc2)CN1; Ala(pyrimidin-5-yl) = N[C@@H](Cc1cncnc1)C(=O)O; Phe(4-COOH) = N[C@@H](Cc1ccc(C(=O)O)cc1)C(=O)O; Pro(cis-4-F) = O=C(O)[C@@H]1C[C@H](F)CN1; 4Pal = N[C@@H](Cc1ccncc1)C(=O)O; Dab = NCC[C@H](N)C(=O)O; Dap = NC[C@H](N)C(=O)O; Aib = CC(C)(N)C(=O)O

B1: SEQ ID NO: 9 (peptide)
peptide: cyclo([Bip(4'-COOH)][4Pal][Phe(4-COOH)]G[Pro(cis-4-F)][Trp(βS-Me,4-F)][Aib]EW[Aib][Ala(pyrimidin-5-yl)]QKG[dPro(4R-Bzl(4-F))])
SMILES: C[C@@H](c1c[nH]c2cccc(F)c12)[C@@H]1NC(=O)[C@@H]2C[C@H](F)CN2C(=O)CNC(=O)[C@H](Cc2ccc(C(=O)O)cc2)NC(=O)[C@H](Cc2ccncc2)NC(=O)[C@H](Cc2ccc(-c3ccc(C(=O)O)cc3)cc2)NC(=O)[C@H]2C[C@@H](Cc3ccc(F)cc3)CN2C(=O)CNC(=O)[C@H](CCCCN)NC(=O)[C@H](CCC(N)=O)NC(=O)[C@H](Cc2cncnc2)NC(=O)C(C)(C)NC(=O)[C@H](Cc2c[nH]c3ccccc23)NC(=O)[C@H](CCC(=O)O)NC(=O)C(C)(C)NC1=O
B2: SEQ ID NO: 89 (peptide)
peptide: cyclo([Phe(4-(5-CO2H-2-pyrimidyl))][Ala(1-bicyclo(1.1.1)pentyl)][Phe(4-COOH)]G[Pro(cis-4-F)][Trp(βS-Me,4-F)][Aib]SW[Aib][4Pal]Q[Dab]G[dPro(4R-(4-pyridylmethyl))])
SMILES: C[C@@H](c1c[nH]c2cccc(F)c12)[C@@H]1NC(=O)[C@@H]2C[C@H](F)CN2C(=O)CNC(=O)[C@H](Cc2ccc(C(=O)O)cc2)NC(=O)[C@H](CC23CC(C2)C3)NC(=O)[C@H](Cc2ccc(-c3ncc(C(=O)O)cn3)cc2)NC(=O)[C@H]2C[C@@H](Cc3ccncc3)CN2C(=O)CNC(=O)[C@H](CCN)NC(=O)[C@H](CCC(N)=O)NC(=O)[C@H](Cc2ccncc2)NC(=O)C(C)(C)NC(=O)[C@H](Cc2c[nH]c3ccccc23)NC(=O)[C@H](CO)NC(=O)C(C)(C)NC1=O
B3: SEQ ID NO: 96 (peptide)
peptide: cyclo([Bip(4'-COOH)][Ala(1-bicyclo(1.1.1)pentyl)][Phe(4-COOH)]G[Pro(cis-4-F)][Trp(βS-Me,4-F)][Aib]EW[Aib][Dap]QSG[dPro(4R-(4-pyridylmethyl))])
SMILES: C[C@@H](c1c[nH]c2cccc(F)c12)[C@@H]1NC(=O)[C@@H]2C[C@H](F)CN2C(=O)CNC(=O)[C@H](Cc2ccc(C(=O)O)cc2)NC(=O)[C@H](CC23CC(C2)C3)NC(=O)[C@H](Cc2ccc(-c3ccc(C(=O)O)cc3)cc2)NC(=O)[C@H]2C[C@@H](Cc3ccncc3)CN2C(=O)CNC(=O)[C@H](CO)NC(=O)[C@H](CCC(N)=O)NC(=O)[C@H](CN)NC(=O)C(C)(C)NC(=O)[C@H](Cc2c[nH]c3ccccc23)NC(=O)[C@H](CCC(=O)O)NC(=O)C(C)(C)NC1=O
B4: SEQ ID NO: 91 (peptide)
peptide: cyclo([PyrimAla4Ph4CO2H][4Pal][Phe(4-COOH)]G[Pro(cis-4-F)][Trp(βS-Me,4-F)][Aib]EW[Aib][Ala(pyrimidin-5-yl)]Q[Dab]G[dPro(4R-Bzl(4-F))])
SMILES: C[C@@H](c1c[nH]c2cccc(F)c12)[C@@H]1NC(=O)[C@@H]2C[C@H](F)CN2C(=O)CNC(=O)[C@H](Cc2ccc(C(=O)O)cc2)NC(=O)[C@H](Cc2ccncc2)NC(=O)[C@H](Cc2cnc(-c3ccc(C(=O)O)cc3)nc2)NC(=O)[C@H]2C[C@@H](Cc3ccc(F)cc3)CN2C(=O)CNC(=O)[C@H](CCN)NC(=O)[C@H](CCC(N)=O)NC(=O)[C@H](Cc2cncnc2)NC(=O)C(C)(C)NC(=O)[C@H](Cc2c[nH]c3ccccc23)NC(=O)[C@H](CCC(=O)O)NC(=O)C(C)(C)NC1=O
B5: SEQ ID NO: 92 (peptide)
peptide: cyclo([PyrimAla4Ph4CO2H][Ala(1-bicyclo(1.1.1)pentyl)][Phe(4-COOH)]G[Pro(cis-4-F)][Trp(βS-Me,4-F)][Aib]EW[Aib][Ala(pyrimidin-5-yl)]Q[Dab]G[dPro(4R-Bzl(4-F))])
SMILES: C[C@@H](c1c[nH]c2cccc(F)c12)[C@@H]1NC(=O)[C@@H]2C[C@H](F)CN2C(=O)CNC(=O)[C@H](Cc2ccc(C(=O)O)cc2)NC(=O)[C@H](CC23CC(C2)C3)NC(=O)[C@H](Cc2cnc(-c3ccc(C(=O)O)cc3)nc2)NC(=O)[C@H]2C[C@@H](Cc3ccc(F)cc3)CN2C(=O)CNC(=O)[C@H](CCN)NC(=O)[C@H](CCC(N)=O)NC(=O)[C@H](Cc2cncnc2)NC(=O)C(C)(C)NC(=O)[C@H](Cc2c[nH]c3ccccc23)NC(=O)[C@H](CCC(=O)O)NC(=O)C(C)(C)NC1=O
B6: SEQ ID NO: 95 (peptide)
peptide: cyclo([TyrEtNAc][4Pal][Phe(4-COOH)]G[Pro(cis-4-F)][Trp(βS-Me,4-F)][Aib]EW[Aib][4Pal]Q[Dab]G[dPro(4R-Bzl(4-F))])
SMILES: CC(=O)NCCOc1ccc(C[C@@H]2NC(=O)[C@H]3C[C@@H](Cc4ccc(F)cc4)CN3C(=O)CNC(=O)[C@H](CCN)NC(=O)[C@H](CCC(N)=O)NC(=O)[C@H](Cc3ccncc3)NC(=O)C(C)(C)NC(=O)[C@H](Cc3c[nH]c4ccccc34)NC(=O)[C@H](CCC(=O)O)NC(=O)C(C)(C)NC(=O)[C@H]([C@@H](C)c3c[nH]c4cccc(F)c34)NC(=O)[C@@H]3C[C@H](F)CN3C(=O)CNC(=O)[C@H](Cc3ccc(C(=O)O)cc3)NC(=O)[C@H](Cc3ccncc3)NC2=O)cc1
B7: SEQ ID NO: 93 (peptide)
peptide: cyclo([Bip(4'-COOH)][Ala(1-bicyclo(1.1.1)pentyl)][Phe(4-COOH)]G[Pro(cis-4-F)][Trp(βS-Me,4-F)][Aib]EW[Aib][Dap]Q[Dab]G[dPro(4R-(4-pyridylmethyl))])
SMILES: C[C@@H](c1c[nH]c2cccc(F)c12)[C@@H]1NC(=O)[C@@H]2C[C@H](F)CN2C(=O)CNC(=O)[C@H](Cc2ccc(C(=O)O)cc2)NC(=O)[C@H](CC23CC(C2)C3)NC(=O)[C@H](Cc2ccc(-c3ccc(C(=O)O)cc3)cc2)NC(=O)[C@H]2C[C@@H](Cc3ccncc3)CN2C(=O)CNC(=O)[C@H](CCN)NC(=O)[C@H](CCC(N)=O)NC(=O)[C@H](CN)NC(=O)C(C)(C)NC(=O)[C@H](Cc2c[nH]c3ccccc23)NC(=O)[C@H](CCC(=O)O)NC(=O)C(C)(C)NC1=O
B8: SEQ ID NO: 94 (peptide)
peptide: cyclo([Phe(4-(5-CO2H-2-pyrimidyl))][Ala(1-bicyclo(1.1.1)pentyl)][Phe(4-COOH)]G[Pro(cis-4-F)][Trp(βS-Me,4-F)][Aib]AW[Aib]SQ[Dab]G[dPro(4R-Bzl(4-F))])
SMILES: C[C@@H]1NC(=O)C(C)(C)NC(=O)[C@H]([C@@H](C)c2c[nH]c3cccc(F)c23)NC(=O)[C@@H]2C[C@H](F)CN2C(=O)CNC(=O)[C@H](Cc2ccc(C(=O)O)cc2)NC(=O)[C@H](CC23CC(C2)C3)NC(=O)[C@H](Cc2ccc(-c3ncc(C(=O)O)cn3)cc2)NC(=O)[C@H]2C[C@@H](Cc3ccc(F)cc3)CN2C(=O)CNC(=O)[C@H](CCN)NC(=O)[C@H](CCC(N)=O)NC(=O)[C@H](CO)NC(=O)C(C)(C)NC(=O)[C@H](Cc2c[nH]c3ccccc23)NC1=O

What follows are binders tested against Recombinant human IL-1β (BioLegend 579404) (human, UniProt P01584 117-269) (assay: cell-based or functional assay).

MRC5 IC50 [nM]	Binder
0.028	B1
0.045	B2
0.064	cyclo([Phe(4-(4-Ac-piperazinyl))][Ala(1-bicyclo(1.1.1)pentyl)][Phe(4-COOH)]G[Pro(cis-4-F)][Trp(βS-Me,4-F)][Aib]EW[Aib][4Pal]Q[Dab]G[dPro(4R-Bzl(4-F))]) [SEQ ID NO: 90]
0.067	B3
0.054	B4
0.07	B5
0.054	B6
0.059	B7
0.096	B8
